Test results from paper PMC9468113.

Biological target: MST-Red-labeled human MIF (human) (UniProt P14174)
Test: MST; Monolith NT.115, 25 °C; MST-Red-MIF at fixed concentration (312 nM with CXCL4L1, 456 nM with CXCL4) with serial dilutions of the chemokine; 10 mM Tris-HCl, pH 8.0, 0.01% BSA; both in solution

Chain of MST-Red-labeled human MIF (human) (P14174 2-115): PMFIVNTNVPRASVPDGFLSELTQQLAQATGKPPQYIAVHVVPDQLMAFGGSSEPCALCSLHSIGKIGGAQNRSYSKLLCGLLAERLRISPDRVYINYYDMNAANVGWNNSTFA

recombinant human CXCL4 (PF4), Peprotech (from UniProt P02776 32-101) (natural protein)
Kd: 2000 nM
